From patent US20090298772A1 (UNIVERSITY OF CHICAGO, published 2009) come the findings set out here.

The labels stand for the following.
T1: menin (endogenous, 293 cell lysate) (UniProt O00255 1-610)
T1 construct: Endogenous protein of transfected 293 cells (a human cell line); Co-immunoprecipitated with FLAG-MLL 1-330; also called endogenous menin; product of the MEN1 tumor suppressor gene
T1 sequence (looked up): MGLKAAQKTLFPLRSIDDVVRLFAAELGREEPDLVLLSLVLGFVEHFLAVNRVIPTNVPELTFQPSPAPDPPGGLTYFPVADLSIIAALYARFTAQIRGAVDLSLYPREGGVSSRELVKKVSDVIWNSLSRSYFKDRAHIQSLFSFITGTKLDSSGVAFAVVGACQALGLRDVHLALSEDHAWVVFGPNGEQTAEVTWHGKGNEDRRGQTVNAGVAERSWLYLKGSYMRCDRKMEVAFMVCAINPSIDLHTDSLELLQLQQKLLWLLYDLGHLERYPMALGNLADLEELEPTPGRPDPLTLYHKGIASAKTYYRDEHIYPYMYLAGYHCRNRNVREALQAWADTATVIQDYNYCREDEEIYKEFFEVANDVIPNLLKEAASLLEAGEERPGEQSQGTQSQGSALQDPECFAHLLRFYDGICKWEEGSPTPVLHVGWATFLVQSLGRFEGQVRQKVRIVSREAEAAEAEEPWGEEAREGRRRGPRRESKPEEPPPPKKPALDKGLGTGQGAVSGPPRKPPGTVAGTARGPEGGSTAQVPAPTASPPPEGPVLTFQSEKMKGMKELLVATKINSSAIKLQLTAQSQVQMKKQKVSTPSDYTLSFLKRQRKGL

B1: MLL 5-14 peptide (peptide)
peptide: CRWRFPARPG
notes: Synthetic peptide; also called MLL peptide 5-14

In the assay the target is T1, menin (endogenous, 293 cell lysate). In words: competition with FLAG-MLL 1-330 for endogenous menin, co-IP / Western blot (FIG. 1); binding to menin shown only by blocking. (In western blotting, separated proteins are transferred to a membrane and probed.)
From the text: Cell lysates were immunoprecipitated with anti-FLAG antibody (Sigma), separated by SDS-PAGE and blotted with an anti-menin antibody (Bethyl Laboratories Inc. or Santa-Cruz).
On to HSCRWRFPARPGTTGG (Synthetic peptide) [MLL peptide 3-18], for which the binding result is listed as “binds”.

For CRWRFPARPGTTGG (Synthetic peptide) [MLL peptide 5-18], the binding result is reported as “binds”.

Consider HSCRWRFPARPG (Synthetic peptide) [MLL peptide 3-14], for which the binding result is recorded as “binds”.

On to AHSCRWRFPARPG (Synthetic peptide) [MLL peptide 2-14], for which the binding result was “binds”.

With MAHSCRWRFPARPG (Synthetic peptide) [MLL peptide 1-14], the binding result is recorded as “binds”.

Turning to SCRWRFPARPGTTGG (Synthetic peptide) [MLL peptide 4-18], the binding result is listed as “binds”.

For the molecule MAHSCRWRFPARPGTTGGGGGGGRRGLGGG (Synthetic peptide) [MLL peptide 1-30], the binding result was “binds”.

Turning to MAHSCRWRFPARPGTTGGGGGGGRRG (Synthetic peptide) [MLL peptide 1-26], the binding result is recorded as “binds”.

MAHSCRWRFPARP (Synthetic peptide) [MLL peptide 1-13]: the binding result is “binds”.

For MAHSCRWRFPARPGTTGG (Synthetic peptide) [MLL peptide 1-18], the binding result was “binds”.

Regarding SCRWRFPARPG (Synthetic peptide) [MLL peptide 4-14], the binding result is given as “binds”.

As to MAHSCRWRFPARPGTTGGGGGG (Synthetic peptide) [MLL peptide 1-22], the binding result was “binds”.

Take AHSCRWRFPARPGTTGG (Synthetic peptide) [MLL peptide 2-18]: the binding result was “binds”.

In the case of B1, the binding result was “binds”.
